By Kd is commonly meant the concentration at which binding is half-saturated.

Our source for the Kd and release from a fibrin matrix (fraction of the protein dose released) values is patent US20230272045A1.

Experiment [1] addresses human tenascin C (human) (UniProt P24821). Nature of the experiment: ELISA.
Experiment [2] concerns the target human plasma fibronectin (human) (UniProt P02751). Nature of the experiment: ELISA. (In general: In an ELISA, binding on a coated surface is turned into a signal by an enzyme label.)
The target in experiment [3] is human vitronectin (human) (UniProt P04004). The experiment is described as follows: ELISA.
Experiment [4] has as its target fibrin matrix (UniProt P02671). The experiment is described as follows: cell-based or functional assay.

Chain of fibrin matrix (P02671 other isoform, or with tags, fused parts or gaps, chain 1 of 3): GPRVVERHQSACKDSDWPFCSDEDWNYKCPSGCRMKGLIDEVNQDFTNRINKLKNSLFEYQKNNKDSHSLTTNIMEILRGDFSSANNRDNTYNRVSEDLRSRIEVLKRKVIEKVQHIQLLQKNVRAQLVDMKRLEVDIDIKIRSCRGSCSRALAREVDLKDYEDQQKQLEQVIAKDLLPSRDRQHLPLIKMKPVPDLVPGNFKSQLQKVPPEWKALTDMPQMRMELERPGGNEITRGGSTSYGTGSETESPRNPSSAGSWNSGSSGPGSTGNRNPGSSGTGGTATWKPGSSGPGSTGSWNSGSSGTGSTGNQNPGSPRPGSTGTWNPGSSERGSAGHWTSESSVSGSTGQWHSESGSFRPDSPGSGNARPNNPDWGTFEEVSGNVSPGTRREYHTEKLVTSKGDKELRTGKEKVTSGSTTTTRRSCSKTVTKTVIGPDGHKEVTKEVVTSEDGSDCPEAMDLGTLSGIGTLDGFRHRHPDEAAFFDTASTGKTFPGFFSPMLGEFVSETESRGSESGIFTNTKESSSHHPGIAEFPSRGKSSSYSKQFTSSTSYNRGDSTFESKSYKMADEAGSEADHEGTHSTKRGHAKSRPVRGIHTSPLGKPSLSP
Chain of fibrin matrix (P02675 45-491, chain 2 of 3, further chain): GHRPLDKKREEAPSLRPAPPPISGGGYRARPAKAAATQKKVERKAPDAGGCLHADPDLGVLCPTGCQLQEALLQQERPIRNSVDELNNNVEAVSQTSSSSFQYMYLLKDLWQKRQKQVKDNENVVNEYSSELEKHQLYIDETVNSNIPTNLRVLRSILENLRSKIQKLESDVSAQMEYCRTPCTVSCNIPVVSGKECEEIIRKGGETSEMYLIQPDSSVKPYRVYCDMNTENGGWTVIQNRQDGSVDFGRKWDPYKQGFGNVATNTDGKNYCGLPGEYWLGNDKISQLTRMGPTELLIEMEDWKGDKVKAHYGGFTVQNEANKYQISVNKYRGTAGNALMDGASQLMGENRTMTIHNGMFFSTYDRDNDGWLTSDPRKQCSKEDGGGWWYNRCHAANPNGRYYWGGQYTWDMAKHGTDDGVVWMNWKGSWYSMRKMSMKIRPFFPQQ
Chain of fibrin matrix (P02679 other isoform, or with tags, fused parts or gaps, chain 3 of 3, further chain): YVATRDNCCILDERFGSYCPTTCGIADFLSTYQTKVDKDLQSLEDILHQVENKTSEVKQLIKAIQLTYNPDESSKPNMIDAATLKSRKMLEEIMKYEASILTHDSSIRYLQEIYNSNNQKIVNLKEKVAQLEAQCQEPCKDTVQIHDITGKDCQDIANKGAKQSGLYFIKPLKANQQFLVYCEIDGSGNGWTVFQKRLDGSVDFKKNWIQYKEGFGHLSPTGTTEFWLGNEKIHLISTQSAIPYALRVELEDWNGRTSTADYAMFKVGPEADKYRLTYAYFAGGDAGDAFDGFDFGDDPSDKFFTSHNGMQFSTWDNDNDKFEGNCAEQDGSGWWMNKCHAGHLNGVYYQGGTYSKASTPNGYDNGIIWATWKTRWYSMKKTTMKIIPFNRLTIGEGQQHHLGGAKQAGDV
Chain of human vitronectin (human) (P04004 20-478): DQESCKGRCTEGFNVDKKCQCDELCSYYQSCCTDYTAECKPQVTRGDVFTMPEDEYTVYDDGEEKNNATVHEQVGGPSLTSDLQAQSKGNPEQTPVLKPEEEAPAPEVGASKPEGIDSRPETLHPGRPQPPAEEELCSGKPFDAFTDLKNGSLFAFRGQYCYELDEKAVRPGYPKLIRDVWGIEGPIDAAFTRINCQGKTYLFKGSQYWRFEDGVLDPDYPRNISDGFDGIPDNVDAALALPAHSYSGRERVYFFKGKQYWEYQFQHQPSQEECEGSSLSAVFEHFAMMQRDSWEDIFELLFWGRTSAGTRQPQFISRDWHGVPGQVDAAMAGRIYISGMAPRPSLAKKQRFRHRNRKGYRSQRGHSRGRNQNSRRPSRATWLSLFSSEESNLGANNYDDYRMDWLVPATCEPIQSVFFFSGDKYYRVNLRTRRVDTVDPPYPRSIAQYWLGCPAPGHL
Chain of human tenascin C (human) (P24821 23-2201): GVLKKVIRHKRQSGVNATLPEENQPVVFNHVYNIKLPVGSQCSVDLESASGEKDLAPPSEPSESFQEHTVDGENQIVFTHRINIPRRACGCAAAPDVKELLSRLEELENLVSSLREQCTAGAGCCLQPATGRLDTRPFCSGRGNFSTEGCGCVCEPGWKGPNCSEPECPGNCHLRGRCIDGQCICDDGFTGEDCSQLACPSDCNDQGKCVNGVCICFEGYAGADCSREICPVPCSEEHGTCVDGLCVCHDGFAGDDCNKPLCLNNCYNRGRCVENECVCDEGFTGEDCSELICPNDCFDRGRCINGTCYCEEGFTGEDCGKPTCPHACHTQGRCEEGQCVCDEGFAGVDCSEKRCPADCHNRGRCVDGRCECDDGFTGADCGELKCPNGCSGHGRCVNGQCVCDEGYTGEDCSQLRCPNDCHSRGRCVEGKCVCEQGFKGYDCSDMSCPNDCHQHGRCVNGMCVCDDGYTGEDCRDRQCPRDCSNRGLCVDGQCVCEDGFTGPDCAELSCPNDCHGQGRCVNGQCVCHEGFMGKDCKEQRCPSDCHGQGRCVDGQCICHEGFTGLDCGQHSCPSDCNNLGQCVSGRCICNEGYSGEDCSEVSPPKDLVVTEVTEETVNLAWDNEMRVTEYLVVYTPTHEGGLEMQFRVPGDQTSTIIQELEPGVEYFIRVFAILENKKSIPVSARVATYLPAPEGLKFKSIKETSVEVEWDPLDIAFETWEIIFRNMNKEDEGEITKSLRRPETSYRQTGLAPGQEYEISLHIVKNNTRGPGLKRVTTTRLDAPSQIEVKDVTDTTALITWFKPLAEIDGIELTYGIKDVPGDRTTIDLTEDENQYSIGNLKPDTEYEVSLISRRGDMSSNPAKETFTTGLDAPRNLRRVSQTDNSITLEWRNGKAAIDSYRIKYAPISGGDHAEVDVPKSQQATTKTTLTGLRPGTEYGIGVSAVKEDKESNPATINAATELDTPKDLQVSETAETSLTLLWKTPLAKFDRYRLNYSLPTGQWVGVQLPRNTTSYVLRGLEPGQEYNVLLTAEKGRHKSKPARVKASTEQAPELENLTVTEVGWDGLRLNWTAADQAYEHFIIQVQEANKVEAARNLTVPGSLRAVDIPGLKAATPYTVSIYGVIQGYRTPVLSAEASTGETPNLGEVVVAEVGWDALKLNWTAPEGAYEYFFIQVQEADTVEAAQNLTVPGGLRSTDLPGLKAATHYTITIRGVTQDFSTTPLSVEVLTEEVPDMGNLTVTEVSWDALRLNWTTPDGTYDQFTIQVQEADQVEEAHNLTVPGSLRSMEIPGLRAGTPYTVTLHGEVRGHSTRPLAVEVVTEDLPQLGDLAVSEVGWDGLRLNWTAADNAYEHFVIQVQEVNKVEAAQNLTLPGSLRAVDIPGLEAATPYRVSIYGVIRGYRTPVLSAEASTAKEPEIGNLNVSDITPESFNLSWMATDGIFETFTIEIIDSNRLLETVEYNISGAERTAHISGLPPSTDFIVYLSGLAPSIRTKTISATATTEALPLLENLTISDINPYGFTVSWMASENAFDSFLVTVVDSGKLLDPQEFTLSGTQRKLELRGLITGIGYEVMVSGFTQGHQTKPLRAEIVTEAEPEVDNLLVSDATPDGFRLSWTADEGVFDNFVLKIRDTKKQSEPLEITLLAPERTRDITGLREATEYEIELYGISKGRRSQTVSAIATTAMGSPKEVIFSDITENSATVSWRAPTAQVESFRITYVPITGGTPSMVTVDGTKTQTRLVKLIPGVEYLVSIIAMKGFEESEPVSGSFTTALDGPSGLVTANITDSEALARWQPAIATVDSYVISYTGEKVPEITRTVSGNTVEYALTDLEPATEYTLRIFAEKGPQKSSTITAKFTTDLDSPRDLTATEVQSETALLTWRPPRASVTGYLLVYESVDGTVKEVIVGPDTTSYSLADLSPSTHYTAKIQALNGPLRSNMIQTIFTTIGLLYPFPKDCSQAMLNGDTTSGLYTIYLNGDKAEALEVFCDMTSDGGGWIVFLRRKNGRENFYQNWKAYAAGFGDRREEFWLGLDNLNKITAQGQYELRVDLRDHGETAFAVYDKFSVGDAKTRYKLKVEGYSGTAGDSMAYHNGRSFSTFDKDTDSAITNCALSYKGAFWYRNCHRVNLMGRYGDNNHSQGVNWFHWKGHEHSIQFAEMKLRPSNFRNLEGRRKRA

Turning to “AREG126-138/PDGF-BB (from UniProt P31240 80-190)”, the Kd was determined as 18.1 nM in experiment [1], 7.9 nM in experiment [2] and 1.9 nM in experiment [3].

In the case of “PIGF-1 (from UniProt P49763 19-149) (ligand)”, the release from a fibrin matrix (fraction of the protein dose released) in experiment [4] was greater than 60%.
